Drawing on PMC12102759, this text covers screen value for 107 variants.

First the molecules themselves.
B1: NEK9 peptide 736-751 (Serine/threonine-protein kinase Nek9), 16-mer library wild type / NSP9 (ORF1ab Nsp9, residues 4141-4253) (parent)
chain 1: NSSGLSIGTVFQSSSP
chain 2: NNELSPVALRQMSCAAGTTQTACTDDNALAYYNTTKGGRFVLALLSDLQDLKWARFPKSDGTGTIYTELEPPCRFVTDTPKGPKVKYLYFIKGLNNLNRGMVLGSLAATVRLQ
B2: NOTCH4 peptide 1606-1621 (Neurogenic locus notch homolog protein 4), 16-mer library wild type / NSP9 (ORF1ab Nsp9, residues 4141-4253) (parent)
chain 1: QGAWLGAPEPWEPLLD
chain 2: B1 chain 2
B3: ICA1L peptide 453-468 (Islet cell autoantigen 1-like protein), 16-mer library wild type / NSP16 (ORF1ab Nsp16, residues 6799-7088) (parent)
chain 1: MSAWFNLFADLDPLSN
chain 2: SSQAWQPGVAMPNLYKMQRMLLEKCDLQNYGDSATLPKGIMMNVAKYTQLCQYLNTLTLAVPYNMRVIHFGAGSDKGVAPGTAVLRQWLPTGTLLVDSDLNDFVSDADSTLIGDCATVHTANKWDLIISDMYDPKTKNVTKENDSKEGFFTYICGFIQQKLALGGSVAIKITEHSWNADLYKLMGHFAWWTAFVTNVNASSSEAFLIGCNYLGKPREQIDGYVMHANYIFWRNTNPIQLSSYSLFDMSKFPLKLRGTAVMSLKEGQINDMILSLLSKGRLIIRENNRVVI
B4: TET3 peptide 458-473 (Methylcytosine dioxygenase TET3), 16-mer library wild type / NSP3 SUD-M (ORF1ab Nsp3c SUD-M, residues 1356-1493) (parent)
chain 1: DPMAELEQLLGSASDY
chain 2: LPSIISNEKQEILGTVSWNLREMLAHAEETRKLMPVCVETKAIVSTIQRKYKGIKIQEGVVDYGARFYFYTSKTTVASLINTLNDLNETLVTMPLGYVTHGLNLEEAARYMRSLKVPATVSVSSPDAVTAYNGYLTSS

Variants of B1 are the subject of one assay. The following applies: with NSP9 (ORF1ab Nsp9, residues 4141-4253); bait immobilised on MaxiSorp plates (10 µg), library pre-cleared on GST, 2 h binding at 4 °C, five washes; one round per day, days 1-4; value from days 2 and 3; keep out of graded; scale: average fractional NGS count over selection days 2 and 3.
As to chain 1 NSSGLSIGTVFNSSSP [chain 1 Q12N], the screen value came to 0.000424. On the same count and under the same terms, then chain 1 NSSGLSIGTVFDSSSP [chain 1 Q12D], with 3.3e-05.

With chain 1 NSSGLSIGTVFASSSP [chain 1 Q12A], the screen value was 1.81e-05. Still for that read-out and setting: in the case of chain 1 NSSGLSIGTVFMSSSP [chain 1 Q12M] it was 1.76e-05; in that of chain 1 NSSGLSIGTVFQSSSK [chain 1 P16K], 0.000119. Still for that read-out and setting: in the case of chain 1 NSSGLSIGTVFQSSSF [chain 1 P16F] it was 0.

As for chain 1 NSSGLSIGTVFQSSSV [chain 1 P16V], the screen value was 0.000367.

Turning to chain 1 NSSGLSIGTVFQSSSD [chain 1 P16D], the screen value worked out at 0.000477. Still for that read-out and setting: then chain 1 NSSGLSIGTVFQSSSL [chain 1 P16L], with 3.5e-05; and chain 1 NSSGLSIGTVFQSSSN [chain 1 P16N], with 4.17e-05.

On to chain 1 NSSGLSIGTVFQSSST [chain 1 P16T], for which the screen value was determined as 2.95e-05.

Regarding chain 1 NSSGLSIGTVFQSSSM [chain 1 P16M], the screen value is 0. The same measure, in the same setting: then chain 1 NSSGLSIGTVFQSSSQ [chain 1 P16Q], with 0. For the variant chain 1 NSSGLSIGYVFQSSSP [chain 1 T9Y], the screen value was 2.09e-05.

Take chain 1 NSSGLSIGHVFQSSSP [chain 1 T9H]: the screen value was determined as 1.62e-05. Take chain 1 NSSGLSIGNVFQSSSP [chain 1 T9N]: the screen value was 0.000187. Still for that read-out and setting: in the case of chain 1 NSSGLSIGDVFQSSSP [chain 1 T9D] it was 0.00026; in that of chain 1 NSSGLSIGEVFQSSSP [chain 1 T9E], 0.00124; in that of chain 1 NSSGLSIGPVFQSSSP [chain 1 T9P], 6.33e-05. Still for that read-out and setting: then chain 1 NSSGLSIGSVFQSSSP [chain 1 T9S], with 0. Still for that read-out and setting: in the case of chain 1 NSSGLSIGLVFQSSSP [chain 1 T9L] it was 0. Consider chain 1 NSSGLSIGGVFQSSSP [chain 1 T9G], for which the screen value was 0. Regarding chain 1 NSSGVSIGTVFQSSSP [chain 1 L5V], the screen value is 4.92e-05. On to chain 1 NSSGRSIGTVFQSSSP [chain 1 L5R], for which the screen value was 0.

Consider chain 1 NSSGKSIGTVFQSSSP [chain 1 L5K], for which the screen value turned out to be 0. Take chain 1 NSSGQSIGTVFQSSSP [chain 1 L5Q]: the screen value was determined as 0.

Consider chain 1 NSSGLSIGTDFQSSSP [chain 1 V10D], for which the screen value was found to be 0.000207. The same measure, in the same setting: then chain 1 NSSGLSIGTSFQSSSP [chain 1 V10S], with 5.93e-05. The same measure, in the same setting: in the case of chain 1 NSSGLSIGTTFQSSSP [chain 1 V10T] it was 0.

As for chain 1 NSSGLSIGTFFQSSSP [chain 1 V10F], the screen value worked out at 0. The same measure, in the same setting: in the case of chain 1 NSSGLFIGTVFQSSSP [chain 1 S6F] it was 0; in that of chain 1 NSSGLYIGTVFQSSSP [chain 1 S6Y], 0.

In the case of chain 1 NSSGLWIGTVFQSSSP [chain 1 S6W], the screen value turned out to be 0.

Regarding chain 1 NSSGLQIGTVFQSSSP [chain 1 S6Q], the screen value stood at 0.

As to chain 1 NSSGLLIGTVFQSSSP [chain 1 S6L], the screen value is 9.77e-05. For the variant chain 1 NSSGLAIGTVFQSSSP [chain 1 S6A], the screen value came to 0.000439. The same measure, in the same setting: in the case of chain 1 NSSGLVIGTVFQSSSP [chain 1 S6V] it was 0.

In another assay the parent is B2. The following applies: with NSP9 (ORF1ab Nsp9, residues 4141-4253); bait immobilised on MaxiSorp plates (10 µg), library pre-cleared on GST, 2 h binding at 4 °C, five washes; one round per day, days 1-4; value from days 2 and 3; keep out of graded; scale: average fractional NGS count over selection days 2 and 3.
With chain 1 QGAWLGAKEPWEPLLD [chain 1 P8K], the screen value stood at 0. Still for that read-out and setting: then chain 1 QGAWPGAPEPWEPLLD [chain 1 L5P], with 3.64e-05; and chain 1 QGAWYGAPEPWEPLLD [chain 1 L5Y], with 0; and chain 1 QGAWMGAPEPWEPLLD [chain 1 L5M], with 0. The same measure, in the same setting: then chain 1 QGAWKGAPEPWEPLLD [chain 1 L5K], with 0; and chain 1 QGAWVGAPEPWEPLLD [chain 1 L5V], with 3.16e-05. chain 1 QGAWHGAPEPWEPLLD [chain 1 L5H]: the screen value was determined as 0. Take chain 1 QGGWLGAPEPWEPLLD [chain 1 A3G]: the screen value was determined as 0. In the case of chain 1 QGEWLGAPEPWEPLLD [chain 1 A3E], the screen value worked out at 2.97e-05. On the same count and under the same terms, in the case of chain 1 QGHWLGAPEPWEPLLD [chain 1 A3H] it was 3.7e-05. Take chain 1 QGAWLNAPEPWEPLLD [chain 1 G6N]: the screen value is 0.

As to chain 1 QGAWLFAPEPWEPLLD [chain 1 G6F], the screen value stood at 0. Same read-out and setting: then chain 1 QGAWLLAPEPWEPLLD [chain 1 G6L], with 0; and chain 1 QGAWLHAPEPWEPLLD [chain 1 G6H], with 0; and chain 1 QGAWLYAPEPWEPLLD [chain 1 G6Y], with 0. Still for that read-out and setting: then chain 1 QGAWLEAPEPWEPLLD [chain 1 G6E], with 6.33e-05. On the same count and under the same terms, then chain 1 QGAWLRAPEPWEPLLD [chain 1 G6R], with 0. On to chain 1 QGAWLSAPEPWEPLLD [chain 1 G6S], for which the screen value turned out to be 0. Consider chain 1 QGAWLQAPEPWEPLLD [chain 1 G6Q], for which the screen value worked out at 0. In the case of chain 1 QGAWLWAPEPWEPLLD [chain 1 G6W], the screen value was 0. On the same count and under the same terms, then chain 1 QGAWLGAPEPKEPLLD [chain 1 W11K], with 3.16e-05. The same measure, in the same setting: in the case of chain 1 QGAWLGAPEPREPLLD [chain 1 W11R] it was 3.62e-05; in that of chain 1 QGAWLGAPRPWEPLLD [chain 1 E9R], 5.73e-05; in that of chain 1 QGAWLGAPHPWEPLLD [chain 1 E9H], 4.98e-05.

For the variant chain 1 QGAILGAPEPWEPLLD [chain 1 W4I], the screen value worked out at 0. Same read-out and setting: in the case of chain 1 QGAFLGAPEPWEPLLD [chain 1 W4F] it was 7.26e-05; in that of chain 1 QGAMLGAPEPWEPLLD [chain 1 W4M], 0. The same measure, in the same setting: in the case of chain 1 QGATLGAPEPWEPLLD [chain 1 W4T] it was 0; in that of chain 1 QGAHLGAPEPWEPLLD [chain 1 W4H], 0; in that of chain 1 QGAQLGAPEPWEPLLD [chain 1 W4Q], 0. Same read-out and setting: then chain 1 QGAWLGAPEPWRPLLD [chain 1 E12R], with 8.31e-05; and chain 1 QTAWLGAPEPWEPLLD [chain 1 G2T], with 0. With chain 1 QYAWLGAPEPWEPLLD [chain 1 G2Y], the screen value was 0. On the same count and under the same terms, then chain 1 QWAWLGAPEPWEPLLD [chain 1 G2W], with 0. Still for that read-out and setting: in the case of chain 1 QRAWLGAPEPWEPLLD [chain 1 G2R] it was 1.21e-05. Still for that read-out and setting: then chain 1 QAAWLGAPEPWEPLLD [chain 1 G2A], with 0; and chain 1 QHAWLGAPEPWEPLLD [chain 1 G2H], with 0. For the variant chain 1 QLAWLGAPEPWEPLLD [chain 1 G2L], the screen value came out at 0. Same read-out and setting: in the case of chain 1 QGAWLGAPEPWEPDLD [chain 1 L14D] it was 2.68e-05; in that of chain 1 QGAWLGAPEPWEPNLD [chain 1 L14N], 1.14e-05.

As to chain 1 QGAWLGAPEPWEPELD [chain 1 L14E], the screen value came out at 4.45e-05. As to chain 1 QGAWLGAPEPWEPLWD [chain 1 L15W], the screen value was found to be 5.05e-05. For chain 1 QGAWLGAPEPWEPLGD [chain 1 L15G], the screen value was found to be 6.9e-05. Still for that read-out and setting: in the case of chain 1 SGAWLGAPEPWEPLLD [chain 1 Q1S] it was 7.35e-05; in that of chain 1 VGAWLGAPEPWEPLLD [chain 1 Q1V], 3.52e-05; in that of chain 1 GGAWLGAPEPWEPLLD [chain 1 Q1G], 5.8e-05.

The next assay covers variants of B3. The settings on record: with NSP16 (ORF1ab Nsp16, residues 6799-7088); bait immobilised on MaxiSorp plates (10 µg), library pre-cleared on GST, 2 h binding at 4 °C, five washes; one round per day, days 1-4; value from days 2 and 3; keep out of graded; scale: average fractional NGS count over selection days 2 and 3.
With chain 1 MDAWFNLFADLDPLSN [chain 1 S2D], the screen value was determined as 0.00136.

As to chain 1 MLAWFNLFADLDPLSN [chain 1 S2L], the screen value was found to be 0.

As for chain 1 MSAWLNLFADLDPLSN [chain 1 F5L], the screen value was 0.

For the variant chain 1 MSAWWNLFADLDPLSN [chain 1 F5W], the screen value is 0. Same read-out and setting: in the case of chain 1 MSAWFNLYADLDPLSN [chain 1 F8Y] it was 0. For chain 1 MSAWFNLFAYLDPLSN [chain 1 D10Y], the screen value is 6.76e-05. Same read-out and setting: then chain 1 MSAWFNLFNDLDPLSN [chain 1 A9N], with 0. The same measure, in the same setting: then chain 1 MSAWFNLFADIDPLSN [chain 1 L11I], with 1.35e-05. Still for that read-out and setting: then chain 1 MSAWFNLFADWDPLSN [chain 1 L11W], with 0; and chain 1 MSAWFNLFADPDPLSN [chain 1 L11P], with 0.

Consider chain 1 MSAWFKLFADLDPLSN [chain 1 N6K], for which the screen value stood at 0. The same measure, in the same setting: then chain 1 MSAWFRLFADLDPLSN [chain 1 N6R], with 0. The same measure, in the same setting: then chain 1 MSAWFNLFADLDPLRN [chain 1 S15R], with 0. On the same count and under the same terms, then chain 1 MSAAFNLFADLDPLSN [chain 1 W4A], with 0; and chain 1 MSAWFNSFADLDPLSN [chain 1 L7S], with 0. As for chain 1 MSPWFNLFADLDPLSN [chain 1 A3P], the screen value came to 0. Same read-out and setting: in the case of chain 1 MSDWFNLFADLDPLSN [chain 1 A3D] it was 4.01e-05; in that of chain 1 MSLWFNLFADLDPLSN [chain 1 A3L], 0. Consider chain 1 MSAWFNLFADLDVLSN [chain 1 P13V], for which the screen value was determined as 0.

Variants of B4 are the subject of another assay. The settings on record: with NSP3 SUD-M (ORF1ab Nsp3c SUD-M, residues 1356-1493); bait immobilised on MaxiSorp plates (10 µg), library pre-cleared on GST, 2 h binding at 4 °C, five washes; one round per day, days 1-4; value from days 2 and 3; keep out of graded; scale: average fractional NGS count over selection days 2 and 3.
Consider chain 1 DPMAELEQLLGSESDY [chain 1 A13E], for which the screen value was 0. Still for that read-out and setting: in the case of chain 1 DPMAELEQLLGSDSDY [chain 1 A13D] it was 0.

For the variant chain 1 DPMAELEQLLGSNSDY [chain 1 A13N], the screen value turned out to be 0. The same measure, in the same setting: in the case of chain 1 DPMLELEQLLGSASDY [chain 1 A4L] it was 0.

For chain 1 DPMNELEQLLGSASDY [chain 1 A4N], the screen value was 0.
